Assay: label from the status in PepcDB records

Row | Sequence | protein production
1 | MSMKKQFALFSTLLLLGSSMPVGAFAEGNNLVAENSSVAETTAEATTAEATETTATSETTEATEESTTETESSTESSESATTESTETSGTETTDSTTDSTSTSTTESTTDSTSTSTTESTTDSTSTSTTESSTTPTTTPSSSKEQPKPGTSTSESKQPAKPVTPTAPAEKPVEQPAASTPQPEIVPPVTNETVGLVEDDETFTVSKTKKTEEFIQEIGESARKVAKDKNLYASVMIAQAILESGSGNSKLSQKPNYNLFGIKGDYKGQSVSFITYEDNGFGNLYTVEAKFRQYPTYKESMEDYAKLLKNGLDSNKDFYHGVWKTEAKSYKEATRFLTGKYATDKDYHKKLNALIKTYDLTYYDKEKATVEPMESNFPAYNGKNYDTFNSYAWGNCTQYVYNRITQLGKRVDLTMGNGQDWGETGRARGYKVSRTPKAGAAVSFPAGVLGADNTYGHVAFVEKVFKDGSILISEMNVKGLNVVSTRTISADETHLMNYIVPKDK | failed
2 | SLDPVSQSKLEQAIHDQIPQLAKTAGKDLEAAAIAVDRHSGEIRAMVGGKRTGYDGFNRVLNASRQIGSLVKPAVYLTALAHPDQYNLATTLEDKPLTLKGSEGSAWTPRNYDRQYRGEVPLYLALAQSLNVPTVALGMKLGIDQVSATLGKLGVNRDEIRPVPSMLLGSFSLTPYQVAQMYQTLTNSGKKAPLSALRSVLDLEGNVLYESLPRVSQAVDQQAAWLTTYAMKQGVQEGTGRYLNAQFSSAALAGKTGTTNDNRDSWFVGVDGREVTTIWLGRDDNQPTKLTGASGALRVYAQYLKYRIPEKLQLPW | failed
3 | MTKQKKLLPVASLLLGAAIWGVAWYPYRLLEQAGMRGELSTTLAYSIALLIGLILFRRQLRISEILNPAAGILFWISLSAGWTGIAYVLGIIHGEVMRVLLLFYLAPLWTILFSRILLQERLSRQGYAIILLSLAGALLLLWQPGSKLPLLASYGDWMGLSGGLAFALTNVLIRKDQQHGIQLKLLAVLSGTALTGFAATLLMESISDITHLHTHAWLILAGIGGLVFFLCILLQYGMTHIPANQAIVIMLFELVVAAIAAHFLTNEYLTGRDWAGGLMIASASLFSARVNRD | failed
4 | MLQKPVQLLLWVAICLLVLLTVYVFFMLDMLWSPFWLVIKTIFIPLIISIFISYLLLPVTEWLHGKGLPRTLSILVIYVLFFGGIGWALYKGVPVLIVQLTDLSENIPMFAETYNGLLLHVHNHTDDWPDGMHHRIDKMIRQTEAFFAGTIEGAISGIRNVLDYFLIAATIPFLVFYMVKDIELMKKTVWYLTPKSWRKRGSAFLRDVDDSLGDYIRGQLLVCLILGVIAGISFWVFGLPYPLILGLISGVTNVIPYFGPFIGAVPALLIAMTISVKAVLVVVITVFILQFMEGNILSPFIVGRSLKMHPVVIMLALLAGGELAGIVGMILAVPATAVLKVMMIHFLRMRTEH | not failed
5 | MKDNYDAPESMLTGRVMYNGEALQLRGNEAVQLQLYQHGYAKHDPINVYVNQDGMYSANLFDGEYQMITKSGNGPWTSEGRDTINVTVAGNTVQDVEVTPYYLVRDAQMTLEGNKVNASFKVEKVAGGGIDRVFFMLSTTQFVNDAEHNVDRYDETDNLDAYDETGKLYTFATRDYTDNSMFQTALKRGTLFGRICIWPKGSDQGIYSKVIRLK | not failed
6 | PPHYDYAIGIRGDSMLPKYEQGDMLYIVDKGMSTYSGQLCIVVHNGNTYFKKVYTEHDGLRLVSLNKKYSDIFIGYPPAEDTYIKIYDVVGSFTPIEF | failed
7 | MNTLRTAMLLAAMTALFMGVGFLIGGSGGMMIALLIAAGTNLFSYWNADKMVLSMNRAVEVDEKNAPEYYAIVQALAKQAGLPMPRTYLIDNPQPNAFATGRNPQNAAVAASTGLLQRLTHEEVAAVMAHELAHVQHRDTLTMTIVATFAGAISMLGNFAFFLGGNRDNNPFGFVGVLAAMIVAPFAAMIVQMAVSRTREYEADRRGAEICGHPLWLASALDKIARGAERIPNPDAERNPAMAHLFIINPLHGERMDNLFSTHPSTDNRIAALQEMAQQMAGGTQAAPRPTPRQAGEQQPSGPWGQAPQAEQPAEPERPKANPWGRNPTGPKGRWS | failed
8 | MGTPAERWERARMFFDAKDYAAAARVLDGLVAQVPEQTGPRLLLARSYYHSAQLRRAEAELRVVVERDPVEHYARLMLGRTLERQGRQEEADAQLRIASALAGLEHHHHHH | failed

— a protein production outcome set (Wang et al. 2014)
